{"source": "patent US20110301073", "assay_in_all_cases": "cell_activity", "key": {"[1]": {"tested_on": "POU5F1 TALEN 101225 (NN half repeat) (Xanthomonas sp. (engineered))", "conditions": "paired with 101125; NN half repeat"}, "[2]": {"tested_on": "POU5F1 TALEN 101229 (half repeat for G) (Xanthomonas sp. (engineered))", "conditions": "paired with 101138"}, "[3]": {"tested_on": "POU5F1 TALEN 101138 (Xanthomonas sp. (engineered))", "conditions": "paired with 101229"}, "[4]": {"tested_on": "TALEN 101126 (synthetic (Xanthomonas TALE))", "conditions": "paired with 101124"}, "[5]": {"tested_on": "POU5F1 TALEN 101125 (Xanthomonas sp. (engineered))", "conditions": "paired with 101225"}, "[6]": {"tested_on": "TALEN 101124 (synthetic (Xanthomonas TALE))", "conditions": "paired with 101126"}}, "data": [{"sequence": "CACCTGCAGCTGCCCAG (double strand) [101225 site]", "values": [{"measurement": "activity", "setting": "[1]", "result": 5, "unit": "% NHEJ"}]}, {"sequence": "CCCCCATTCCTAGAAGG (double strand) [101229 site]", "values": [{"measurement": "activity", "setting": "[2]", "result": 25.6, "unit": "% NHEJ"}]}, {"sequence": "CTGGGCTCTCCCAT (double strand) [101138 site]", "values": [{"measurement": "activity", "setting": "[3]", "result": 25.6, "unit": "% NHEJ"}]}, {"sequence": "GACCCTGCCTGCT (double strand) [101126 site]", "values": [{"measurement": "activity", "setting": "[4]", "result": 2.2, "unit": "% NHEJ"}]}, {"sequence": "GACCCTGCCTGCTCCT (double strand) [101125 site]", "values": [{"measurement": "activity", "setting": "[5]", "result": 5, "unit": "% NHEJ"}]}, {"sequence": "GCAGCTGCCCAGACCT (double strand) [101124 site]", "values": [{"measurement": "activity", "setting": "[6]", "result": 2.2, "unit": "% NHEJ"}]}]}
